One data set addresses T1, bsKu core N32E (Bacillus subtilis, UniProt O34859 18-244, N32E).
T1 sequence: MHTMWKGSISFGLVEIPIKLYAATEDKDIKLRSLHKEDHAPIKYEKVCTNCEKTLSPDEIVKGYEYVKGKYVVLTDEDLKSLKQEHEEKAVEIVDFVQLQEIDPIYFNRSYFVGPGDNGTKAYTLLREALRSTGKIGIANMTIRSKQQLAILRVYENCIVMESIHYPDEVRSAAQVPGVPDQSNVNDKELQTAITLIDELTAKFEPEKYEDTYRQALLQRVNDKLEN
Nature of the data set: EMSA; no significant loss of binding; EMSA: 20 mM HEPES pH 7.5, 150 mM KCl, 1 mM DTT, 50 nM DNA, 30 min at 4°C, 15% native PAGE in 0.5x TBE, SYBR Gold; SEC: same buffer, protein:DNA 1:2, 1 h at 4°C, Superdex 75. Particulars: protein: recombinant; tags: N-terminal 8xHis-MBP, cleaved; chain copies: 2; blunt. Background: In EMSA bound probe runs differently from free probe, usually more slowly.

For another data set, the target named is T2, bsKu core L30G (Bacillus subtilis, UniProt O34859 18-244, L30G).
T2 sequence: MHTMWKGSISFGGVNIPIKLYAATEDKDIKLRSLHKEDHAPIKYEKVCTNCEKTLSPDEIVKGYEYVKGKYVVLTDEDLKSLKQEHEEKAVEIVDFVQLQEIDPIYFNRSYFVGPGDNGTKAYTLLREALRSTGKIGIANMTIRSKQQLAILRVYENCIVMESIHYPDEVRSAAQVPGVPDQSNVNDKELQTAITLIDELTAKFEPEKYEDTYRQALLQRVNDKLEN
The description is as above. The following applies: protein: recombinant; tags: N-terminal 8xHis-MBP, cleaved; chain copies: 2; blunt.

These results are taken from publication PMC12784961, “Structure of Bacillus subtilis Ku-mediated DNA synaptic complex”.

B1: 13-bp DNA (dsDNA)
DNA 1: GTACCTGTAGAAG
DNA 2: CTTCTACAGGTAC
For B1, the binding result with bsKu core N32E and in the data set with bsKu core L30G was “binds” throughout.
